Experimental data: paper PMC5170556 (Molecular Biology of the Cell, 2016)
Blank lines part the entries; values can stand above or below the molecule they belong to.

B1: Kar9C (residues 429–644) (domain or fragment, S. cerevisiae, UniProt P32526 429-644, looked up)
chain: SVIGTITQDFQERVAINEGDSNKTPENSTTVALKGKKLGKALLQKMNIKPATSPNSSNAINPFFDPESPNKGKLILSSVPPLPYDETDETTLRVSRGENEKSPDSFITSRHENKVQITETPLMAKNKSVLDIEKDKWNHYRSLPSRIPIYKDKVVKVTVENTPIAKVFQTPPTKITTPNSQVWVPSTRRRTRLRPPTPLSQLLSPREGRLDKTPTY
B2: Kar9C-Site2mut (domain or fragment, S. cerevisiae, UniProt P32526 429-644, looked up)
chain: SVIGTITQDFQERVAINEGDSNKTPENSTTVALKGKKLGKALLQKMNIKPATSPNSSNAINPFFDPESPNKGKLILSSVPPLPYDETDETTLRVSRGENEKSPDSFITSRHENKVQITETPLMAKNKSVLDIEKDKWNHYRSLPSRNNIYKDKVVKVTVENTPIAKVFQTPPTKITTPNSQVWVPSTRRRTRLRPPTPLSQLLSPREGRLDKTPTY
B5: C-terminal domain of Bim1 (residues 194–344) (domain or fragment, S. cerevisiae, UniProt P40013 194-344, looked up)
chain: ETIGSLNEEIEQYKGTVSTLEIEREFYFNKLRDIEILVHTTQDLINEGVYKFNDETITGHGNGNGGALLRFVKKVESILYATAEGFEMNDGEDELNDKNLGEHGTVPNQGGYANSNGEVNGNEGSNHDVIMQNDEGEVGVSNNLIIDEETF

Assays:
[1] = molecular target: Kar9N (residues 1–429) (S. cerevisiae) (UniProt P32526); experiment: SEC-MALS
[2] = molecular target: Kar9 (full-length) (S. cerevisiae) (UniProt P32526); experiment: SEC-MALS
[3] = molecular target: B5; experiment: ITC
Kar9-GFP = molecular target: T1, Kar9-GFP (S. cerevisiae, UniProt P32526 1-644); experiment: in vitro microtubule-tip tracking reconstitution
T1 sequence (looked up): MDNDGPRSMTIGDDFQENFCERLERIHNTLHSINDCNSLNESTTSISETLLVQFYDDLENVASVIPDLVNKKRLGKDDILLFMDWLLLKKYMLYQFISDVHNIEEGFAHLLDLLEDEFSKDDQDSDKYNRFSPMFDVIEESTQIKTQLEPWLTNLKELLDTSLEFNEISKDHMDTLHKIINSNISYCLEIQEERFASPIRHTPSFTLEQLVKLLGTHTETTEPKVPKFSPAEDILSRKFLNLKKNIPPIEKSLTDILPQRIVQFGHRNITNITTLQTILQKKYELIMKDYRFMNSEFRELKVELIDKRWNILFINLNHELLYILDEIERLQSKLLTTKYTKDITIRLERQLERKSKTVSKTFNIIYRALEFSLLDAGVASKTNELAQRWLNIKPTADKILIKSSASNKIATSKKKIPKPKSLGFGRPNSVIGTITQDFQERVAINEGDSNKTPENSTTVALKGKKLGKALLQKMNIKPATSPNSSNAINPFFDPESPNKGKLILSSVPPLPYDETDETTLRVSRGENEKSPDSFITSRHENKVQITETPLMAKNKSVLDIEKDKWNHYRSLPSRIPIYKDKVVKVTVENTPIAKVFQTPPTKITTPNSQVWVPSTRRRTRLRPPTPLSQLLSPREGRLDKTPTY

Kar9 (full-length) = molecular target: T2, Kar9 (full-length) (S. cerevisiae, UniProt P32526 1-644); experiment: fluorescence correlation spectroscopy
T2 sequence (looked up): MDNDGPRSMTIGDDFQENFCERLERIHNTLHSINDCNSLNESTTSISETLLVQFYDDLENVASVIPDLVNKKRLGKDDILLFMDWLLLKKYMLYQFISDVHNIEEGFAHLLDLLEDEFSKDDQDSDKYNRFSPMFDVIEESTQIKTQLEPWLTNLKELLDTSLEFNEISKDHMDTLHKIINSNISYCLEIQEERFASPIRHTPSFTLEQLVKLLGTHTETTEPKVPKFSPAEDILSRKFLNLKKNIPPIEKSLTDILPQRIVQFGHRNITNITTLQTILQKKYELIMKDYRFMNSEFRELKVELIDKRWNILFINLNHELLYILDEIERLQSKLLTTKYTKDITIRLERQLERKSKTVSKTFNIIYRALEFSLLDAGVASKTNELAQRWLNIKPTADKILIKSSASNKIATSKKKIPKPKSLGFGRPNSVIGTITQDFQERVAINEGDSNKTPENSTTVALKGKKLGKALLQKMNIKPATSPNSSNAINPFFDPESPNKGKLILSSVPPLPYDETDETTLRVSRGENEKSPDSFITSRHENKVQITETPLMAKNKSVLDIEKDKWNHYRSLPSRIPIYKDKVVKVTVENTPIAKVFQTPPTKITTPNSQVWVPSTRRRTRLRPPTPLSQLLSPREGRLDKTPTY

SEC-MALS = molecular target: the molecule itself; experiment: SEC-MALS
Kar9C-Site2mut = molecular target: B2; experiment: ITC
Kar9C (residues 429–644) = molecular target: B1; experiment: ITC
AUC = molecular target: the molecule itself; experiment: AUC
[4] = molecular target: T3, Kar9N-Site1 (first 570 N-terminal residues of Kar9) (S. cerevisiae, UniProt P32526 1-570); experiment: fluorescence correlation spectroscopy
T3 sequence (looked up): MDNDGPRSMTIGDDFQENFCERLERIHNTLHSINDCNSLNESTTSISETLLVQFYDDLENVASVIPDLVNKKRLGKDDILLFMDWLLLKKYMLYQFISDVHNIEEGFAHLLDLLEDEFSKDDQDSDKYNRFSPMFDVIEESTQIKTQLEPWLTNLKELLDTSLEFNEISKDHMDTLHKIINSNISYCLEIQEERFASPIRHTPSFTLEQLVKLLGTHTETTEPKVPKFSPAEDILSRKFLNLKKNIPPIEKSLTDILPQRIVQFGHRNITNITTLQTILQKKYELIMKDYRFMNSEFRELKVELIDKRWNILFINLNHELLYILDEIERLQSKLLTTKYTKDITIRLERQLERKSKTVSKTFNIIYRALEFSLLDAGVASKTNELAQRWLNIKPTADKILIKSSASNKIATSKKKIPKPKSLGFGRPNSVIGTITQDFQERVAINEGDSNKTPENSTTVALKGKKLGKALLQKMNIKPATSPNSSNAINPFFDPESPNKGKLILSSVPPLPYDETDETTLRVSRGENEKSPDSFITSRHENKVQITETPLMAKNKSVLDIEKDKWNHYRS

- stoichiometry N [1]: 2
Molecule: Kar9N (residues 1–429) (from UniProt P32526 1-429) (domain or fragment)

- stoichiometry N [2]: 2
Molecule: Kar9 (full-length) (from UniProt P32526 1-644) (natural protein)

Molecule: B1
- stoichiometry N [3]: 0.48

Molecule: B2
- stoichiometry N [3]: 0.74

- binding result (Kar9-GFP): binds
B3: Mal3 (unlabeled), Schizosaccharomyces pombe EB1 family member (natural protein, UniProt Q10113 1-308, looked up)
chain: MSESRQELLAWINQVTSLGLTRIEDCGKGYAMIQIFDSIYQDIPLKKVNFECNNEYQYINNWKVLQQVFLKKGIDKVVDPERLSRCKMQDNLEFVQWAKRFWDQYYPGGDYDALARRGNRGPANTRVMNSSAGATGPSRRRQVSSGSSTPSMTKSSANNNNVSSTANTAAVLRAKQAQQQITSLETQLYEVNETMFGLERERDFYFNKLREIEILVQTHLTTSPMSMENMLERIQAILYSTEDGFELPPDQPADLTTALTDHDTNNVAEEAQMTDLKDSETQRVPSAPDFVHARLQSLEVDDDENITF

- Kd (Kar9 (full-length)): 4.5 nM
B4: GFP-tagged C-terminal domain of Bim1 (domain or fragment, S. cerevisiae, UniProt P40013 194-344, looked up)
chain: ETIGSLNEEIEQYKGTVSTLEIEREFYFNKLRDIEILVHTTQDLINEGVYKFNDETITGHGNGNGGALLRFVKKVESILYATAEGFEMNDGEDELNDKNLGEHGTVPNQGGYANSNGEVNGNEGSNHDVIMQNDEGEVGVSNNLIIDEETF

Molecule: B5
- stoichiometry N (SEC-MALS): 2
- Kd (Kar9C-Site2mut): 4700 nM
- Kd (Kar9C (residues 429–644)): 9.1 nM

- Kd [3]: 560 nM
- stoichiometry N [3]: 0.99
B6: Trx-Kar9-Site3 (domain or fragment)
chain: VFQTPPTKITTPNSQVWVPSTRRRTRLRPPTPLSQLLSPREGRLDKTPTY

B7: Bim1 (full-length) (natural protein, S. cerevisiae, UniProt P40013 1-344, looked up)
chain: MSAGIGESRTELLTWLNGLLNLNYKKIEECGTGAAYCQIMDSIYGDLPMNRVKFNATAEYEFQTNYKILQSCFSRHGIEKTVYVDKLIRCKFQDNLEFLQWLKKHWIRHKDESVYDPDARRKYRPIITNNSATKPRTVSNPTTAKRSSSTGTGSAMSGGLATRHSSLGINGSRKTSVTQGQLVAIQAELTKSQETIGSLNEEIEQYKGTVSTLEIEREFYFNKLRDIEILVHTTQDLINEGVYKFNDETITGHGNGNGGALLRFVKKVESILYATAEGFEMNDGEDELNDKNLGEHGTVPNQGGYANSNGEVNGNEGSNHDVIMQNDEGEVGVSNNLIIDEETF
- stoichiometry N (SEC-MALS): 2

- Kd [4]: ~100000 nM
B8: C-terminally green fluorescent protein–tagged Bim1 (natural protein, S. cerevisiae, UniProt P40013 1-344, looked up)
chain: MSAGIGESRTELLTWLNGLLNLNYKKIEECGTGAAYCQIMDSIYGDLPMNRVKFNATAEYEFQTNYKILQSCFSRHGIEKTVYVDKLIRCKFQDNLEFLQWLKKHWIRHKDESVYDPDARRKYRPIITNNSATKPRTVSNPTTAKRSSSTGTGSAMSGGLATRHSSLGINGSRKTSVTQGQLVAIQAELTKSQETIGSLNEEIEQYKGTVSTLEIEREFYFNKLRDIEILVHTTQDLINEGVYKFNDETITGHGNGNGGALLRFVKKVESILYATAEGFEMNDGEDELNDKNLGEHGTVPNQGGYANSNGEVNGNEGSNHDVIMQNDEGEVGVSNNLIIDEETF
- stoichiometry N (AUC): 2
